Experimental data taken from article PMC4838890, “Dynamic and flexible H3K9me3 bridging via HP1β dimerization establishes a plastic state of condensed chromatin” (Nature Communications, 2016).
Like-named read-outs stand apart in the source and are kept apart here.

Columns and labels:
[1] = target: T1, H3K9me3 peptide (Homo sapiens, UniProt P68431); assay: ITC, H3K9me3 peptide; format: binding; details: for Kd / N (stoichiometry of interaction): ITC; for Kd: 10 mM triethanolamine pH 7.5, 0.1 mM EDTA, 25°C, read-out: Kd (apparent dissociation constant); for N (stoichiometry of interaction): pH 7.5, 25°C
T1 construct: C-terminally biotinylated histone H3 peptides (aa 1–20)
Experimental: ITC measurements were performed on a iTC200 calorimeter (Microcal, Malvern, UK) at 25°C in binding buffer (10 mM triethanolamine (pH 7.5), 20 or 150 mM NaCl, 0.1 mM EDTA). Reaction heats were recorded by sequences of 37 injections of 1.8 mM hHP1β, spaced at 120 s intervals, into 250 μl of 60 μM H3 peptides, nucleosomes or oligonucleosomal arrays under constant stirring at 1,000 r.p.m. (injection #1–10: 0.5 μl each; injection #11–32: 1 μl each; injection #33–37: 2 μl each). Heats of dilution, obtained by the titration of hHP1β into buffer, were substracted from raw data before analysis. Raw data were integrated, normalized and the apparent heat change (Δq) of the reaction was plotted against the molecular ratio using the Origin software. For the determination of apparent enthalpy changes (ΔHapp), the molar association constant (KA), and the stoichiometry (n) of the interaction, non-linear least-square fitting of the Δq values was performed by the Origin software using a binding model of one set of identical binding sites.
Figure S4 Hiragami-Hamada et al. […]
Supplementary Figure 4: Quantitative analysis of interaction of hHP1β with H3K9me3-peptides and
(a) ITC measurements of H3K9me3-peptide/hHP1β WT interaction at 20 mM NaCl (left) and 150 mM
NaCl (right). Upper panels, raw data of heat release upon stepwise injection of recombinant protein into
solution of peptide; lower panels, plots of integrated heats of protein injections vs. molar ratio of hHP1β
WT per peptide calculated by MicroCal software. Injections #1-10: 0.5 µl; injections #11-32: 1 µ l; […]

[2] = system: H3K9me3 oligonucleosomes; assay: Chromatin coprecipitation, H3K9me3 oligonucleosomes; format: binding, Xenopus laevis
Experimental: 6.7 nM oligonucleosomes were incubated with 1 μM recombinant protein in 100 μl binding buffer (10 mM triethanolamine (pH 7.5), 150 mM NaCl, 5 mM MgCl2, 0.1 mM EDTA, 0.1% (v/v) Triton-X100) for 1 h on ice. Precipitated chromatin complexes were recovered by centrifugation at 16,100g for 30 min at 4°C. Pellets were washed once with 0.5 ml binding buffer and centrifuged for 15 min at 4 °C. Precipitated material was resuspended in 10 μl 1 × SDS loading buffer and boiled for 5 min before running on SDS–PAGE.
Supplementary Table 1: Summary of conditions used in the different experiments of this study.
experiment result modification template Temp. [NaCl] [MgCl2]
chromatin Fig. 1e,f; Fig. S1f-h; H3K9me3 oligo- 4 150 5

Substance	Kd ([1]; 20 mM NaCl) [nM]	N (stoichiometry of interaction) ([1]; 20 mM NaCl)	Kd ([1]; 150 mM NaCl) [nM]	N (stoichiometry of interaction) ([1]; 150 mM NaCl)	specificity for H3K9me3 ([2]; chromatin coprecipitation, 5 mM MgCl2)	dependence of recovery on DNA sequence ([2]; chromatin on linearized pUC18 or 12 x 5S rDNA)	binding to H3K9me3 peptide relative to WT ([1]; Table 1)	recovery with H3K9me3 oligonucleosomes ([2]; 6.7 nM oligonucleosomes, 1 μM protein, 150 mM NaCl, 5 mM MgCl2, 1 h on ice)	competition with hHP1β WT for interaction with H3K9me3 oligonucleosomes ([2]; competitive coprecipitation, Supplementary Fig. 2b)
hHP1β WT: recombinant human heterochromatin protein 1β (GenBank NM_001127228), 185 aa	1400 ± 600	0.9±0.0	3300 ± 200	1.0±0.0	coprecipitated only with H3K9me1/2/3 but not H3K9me0 oligonucleosomes	independent of the DNA sequence used for chromatin reconstitution			
hHP1β I161A: CSD point mutant of hHP1β incapable of dimerization	1100 ± 500	1.0±0.1	3400 ± 200	0.9±0.0			bound an H3K9me3-peptide as efficiently as hHP1β wild type	neither the monomeric CD alone nor an I161A mutant protein, which is incapable of dimerization[8], were significantly recovered with H3K9me3 oligonucleosomes	ineffective in competing with hHP1β WT
